Non-standard residues stand in square brackets, D forms with d. Primed or numbered codes have the meaning given here. No end group written: not given here. *: point of attachment. FITC = O=C1OC2(c3ccc(O)cc3Oc3cc(O)ccc32)c2ccc(NC(=S)*)cc21; pY = N[C@@H](Cc1ccc(OP(=O)(O)O)cc1)C(=O)O; FITC′ = not defined here

Three molecules from paper PMC5417323 (Journal of Molecular Biology, 2017) can be followed below.

Experiment [1] has as its target Lck SH2 domain (UniProt P06239 118-231, biotin on the Avi-tag (yeast binding assay, pull-down)). Kind of experiment: fluorescence polarisation.
The target of experiment [2] is the eight SFK SH2 domains. As to the kind of experiment: fluorescence polarisation. For orientation: In fluorescence polarisation assays a small probe gives low polarisation when free and higher when bound to something large.

Sequence of Lck SH2 domain (P06239 118-231): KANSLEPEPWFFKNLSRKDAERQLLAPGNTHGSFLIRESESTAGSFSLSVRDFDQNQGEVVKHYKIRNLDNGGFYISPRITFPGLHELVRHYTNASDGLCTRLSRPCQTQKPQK

As to {FITC}-TEGQ[pY]QPQPA [(FITC)-TEGQpYQPQPA], in experiment [1], the Kd was determined as 2200 nM.

{FITC}-ADND[pY]IIPLPD [(FITC)-ADNDpYIIPLPD]: binding in experiment [1] was characterised by a dissociation constant (Kd) of 955 nM.

For EPQ[pY]EEIPIYLK-{FITC′} [EPQp…-(FITC)], the Kd in experiment [2] lay in the range of 310 to 675 nM.

Broadly, the Kd is the concentration at which binding is half-saturated. Low values mean tighter binding, high ones weaker binding.
